The subject of series [1] is T1, VEGF165 (Homo sapiens), P15692-4.
T1 sequence: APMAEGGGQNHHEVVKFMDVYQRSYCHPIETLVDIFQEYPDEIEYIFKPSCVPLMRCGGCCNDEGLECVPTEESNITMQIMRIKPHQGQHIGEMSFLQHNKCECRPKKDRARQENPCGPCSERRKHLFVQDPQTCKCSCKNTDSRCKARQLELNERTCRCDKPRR
In words: filter. Particulars: 2'-F pyrimidines, 2'-OH purines, 37 C.

The test system of series [2] is VEGF165 (Homo sapiens), P15692-4. Particulars: 2'-NH2 pyrimidines, 2'-OMe purines; CITED US 5811533; cited from earlier work.

pKd: −log10 of the molar value. Like-named read-outs stand apart in the source and are kept apart here.

As to “GGGAGGACGAUGCGGAGAAUCAGUGAAUGCUUAUAAAUCUCGYGUCAGACGACUCGCCCGA [VT30.3]”, in series [1] (single determination), the pKd (usually −log10 of the Kd, conventionally taken in molar units) was 11.30.

Turning to “GGGAGGACGAUGCGGAYCAACCGAUUGACGUUAUGGGACGCUGGUCAGACGACUCGCCCGA [VP30.5]”, in series [1] (single determination), the pKd is 11.10.

In the case of “GGGAGGACGAUGCGGCGGYACUUUGGAAGAAUUGAAUUUCCCGCUCAGACGACUCGCCCGA [VP30.26]”, in series [1] (single determination), the pKd is 11.00.

For the substance “GGGAGGACGAUGCGGUAGGAAGAAUUGGAAGCGCAUUUUCCUCGYCAGACGACUCGCCCGA [VP30.22]”, the negative logarithm of the Kd (pKd) in series [1] is 10.70.

In turn, “GGGAGGACGAUGCGGYGAACCGAUGGAAUUUUUGGACGCUCGCCUCAGACGACUCGCCCGA [VP30.2]” gave a pKd in series [1] of 11.00.

Consider NX-213, for which the pKd in series [2] is 9.85.

These data come from US6051698.
